Square brackets hold non-standard residues; d marks the D form. Ends that are not written are not given here. pY = N[C@@H](Cc1ccc(OP(=O)(O)O)cc1)C(=O)O
B1: Phosphorylated Brk C-terminal tail peptide, wild type (FTSpYENPTG) (peptide)
peptide: FTS[pY]ENPTG
B2: Phosphorylated Brk C-terminal tail peptide with the P450L substitution (FTSpYENLTG) (peptide)
peptide: FTS[pY]ENLTG

Molecular target: Brk SH2 domain (UniProt Q13882 78-170)
Assay: ITC

Sequence of Brk SH2 domain (Q13882 78-170): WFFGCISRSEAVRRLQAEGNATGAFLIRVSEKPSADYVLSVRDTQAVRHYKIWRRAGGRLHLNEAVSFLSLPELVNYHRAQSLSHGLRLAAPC

Row | Binder | Kd
1 | B1 | 15 µM
2 | B2 | 53 µM

— article PMC4757811 (Biochemistry, 2015)
